Molecular target: Elk-1 ETS domain (Elk-ets), recombinant
Experiment: SEC

stoichiometry N: 2
Substance: Elk-1 ETS domain (Elk-ets), recombinant (domain or fragment)

Source: paper PMC3159454
